Results reported in patent US20230192897A1 (NUMAB THERAPEUTICS, published 2023).
Each block holds one binder with its values, some of them ahead of it.

What was measured:
[1] = biological target: T1, Fc tagged human PDL1 (human, UniProt Q9NZQ7 19-239); assay: SPR
T1 construct: Bought (Sino Biological, cat. 10084-H02H); captured on the SPR chip; also called PDL1-Fc chimeric protein
Outline: (§1)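 Kinetics were fitted with a one-to-one Langmuir model to give apparent ka, kd and KD. Binders at 0.12-90 nM (three-fold series) flowed 3 min, with 10 min dissociation and 3 M MgCl₂ regeneration, on a Biacore T200.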

[2] = biological target: T2, cynomolgus PDL1-Fc chimeric protein (cynomolgus monkey, UniProt G7PSE7 19-239); assay: SPR
T2 construct: PDL1-Fc chimeric protein from different species captured on the chip
Outline: as §1

[3] = biological target: human PDL1 on cells (human, UniProt Q9NZQ7 19-290); assay: cell-based or functional assay
[4] = biological target: T3, biotinylated human PDL1 (human, UniProt Q9NZQ7 19-238, limits assumed, biotinylated); assay: competition ELISA B7.1/PDL1
T3 construct: also called biotinylated PDL1
Outline: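 Test mixtures containing biotinylated human PDL1 were pre-incubated 1 h at room temperature, then incubated 1.5 h on the plate under agitation. Bound PDL1 detected with 10 ng/ml streptavidin-polyHRP40 and TMB, stopped at 6 min with HCl, read at 450 nm minus 690 nm. IC₅₀ from 4PL fit.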

[5] = biological target: T3, biotinylated human PDL1; assay: competition ELISA PD-1/PDL1
[6] = biological target: cynomolgus CD137-Fc chimeric protein (cynomolgus monkey, UniProt A9YYE7 24-186); assay: SPR
Outline: as §1

[7] = biological target: T4, Fc tagged human CD137 (human, UniProt Q07011 24-186); assay: SPR
T4 construct: also called CD137-Fc chimeric protein
Outline: as §1

[8] = biological target: T5, CD137 on Jurkat NFkB reporter cells (human, UniProt Q07011 24-255); assay: cell-based or functional assay
[9] = biological target: T5, CD137 on Jurkat NFkB reporter cells; assay: cell-based or functional assay; remark: listed apart in the source
[10] = biological target: T6, human serum albumin (human, UniProt P02768 25-609); assay: SPR, SA coupled to chip, pH 5.5
T6 construct: Coupled directly to the CM5 chip; also called HSA; human SA
Experimental: Affinity of molecules to serum albumin (SA) of the different species was determined by SPR measurements using a Biacore T200 device (GE Healthcare). SA was directly coupled to a CM5 sensor chip (GE Healthcare) using amine coupling chemistry. […] The assay was run in a 1× PBS-Tween buffer at pH 5.5.

Kd [1]: 0.045 nM
koff [1]: 0.00027 s⁻¹
kon [1]: 6e+06 M⁻¹ s⁻¹
koff [2]: 0.00032 s⁻¹
kon [2]: 5.9e+06 M⁻¹ s⁻¹
IC50 (ng/ml), NF-AT potency assay [3]: 21.3 ng/mL
rel. IC50 (avelumab/test) [3]: 1.6 fold
IC50 [4]: 4.05 ng/mL
rel. IC50 (IC50 avelumab/IC50 test) [4]: 3.68 fold
IC50 [5]: 0.57 ng/mL
rel. IC50 (IC50 avelumab/IC50 test) [5]: 3.67 fold
B1: PRO1013 (scFv)
scFv: DIQMTQSPSSLSASVGDRVTITCQASQSIGTYLAWYQQKPGKAPKLLIYRAFILASGVPSRFSGSGSGTDFTLTISSLQPEDFATYYCQSNFYSDSTTIGPNAFGTGTKVTVLGGGGGSGGGGSGGGGSGGGGSQVQLVQSGAEVKKPGASVKVSCKASGFSFNSDYWIYWVRQAPGQGLEWMGSIYGGSSGNTQYASWAQGRVTMTRDTSISTAYMELSSLRSEDTAVYYCARGYVDYGGATDLWGQGTLVTVSS
notes: anti-PDL1 scFv; also called 37-20-B03 sc02 scFv; 37-20-B03 CDR, VH1

koff [1]: 0.00016 s⁻¹
kon [1]: 2.1e+06 M⁻¹ s⁻¹
koff [2]: 0.0002 s⁻¹
kon [2]: 2.2e+06 M⁻¹ s⁻¹
IC50 (ng/ml), NF-AT potency assay [3]: 42.9 ng/mL
rel. IC50 (avelumab/test) [3]: 0.73 fold
IC50 [4]: 12.9 ng/mL
rel. IC50 (IC50 avelumab/IC50 test) [4]: 1.16 fold
IC50 [5]: 3.4 ng/mL
rel. IC50 (IC50 avelumab/IC50 test) [5]: 0.61 fold
B2: PRO830 (scFv)
scFv: DIQMTQSPSSLSASVGDRVTITCQASQSINDYLAWYQQKPGKAPKLLIYKASTLASGVPSRFSGSGSGTDFTLTISSLQPEDFATYYCQQGYIITDIDNVFGTGTKVTVLGGGGGSGGGGSGGGGSGGGGSQVQLQESGPGLVKPSETLSLTCKVSGFSFSSGYDMCWIRQPPGKGLEWIGCVVAGSVDITYYASWAKGRVTISVDSSKNQFSLKLSSVTAADTAVYYCARKDAYSDAFNLWGQGTLVTVSS
notes: anti-PDL1 scFv; also called 33-03-G02 sc01 scFv; 33-03-G02 CDR

kon [1]: 3.5e+06 M⁻¹ s⁻¹
Kd [6]: 0.47 nM
koff [6]: 0.0003 s⁻¹
kon [6]: 640000 M⁻¹ s⁻¹
Kd [2]: 0.0085 nM
koff [2]: 3.4e-05 s⁻¹
kon [2]: 4e+06 M⁻¹ s⁻¹
Kd [7]: 0.37 nM
koff [7]: 0.00022 s⁻¹
kon [7]: 580000 M⁻¹ s⁻¹
IC50 (ng/ml), NF-AT potency assay, +HSA [3]: 84.8 ng/mL
rel. IC50 (avelumab/test), +HSA [3]: 0.61 fold
IC50 (ng/ml) (EC50 in Table 16C), NFkB reporter, HCC827 + IFNg, 24 h, +HSA [8]: 4.67 ng/mL
rel. IC50 (PRO1186/test), 24 h [8]: 1 fold
Area under the curve (calculated using PRO885 normalized data), first line (6 h by the order of the upper part) [9]: 232
Area under the curve (calculated using PRO885 normalized data), second line (24 h by the order of the upper part) [9]: 261
EC50 [ng/ml], NF-kB reporter, HCC827 + IFNg, +HSA, 6 h [9]: 6.44 ng/mL
IC10/EC90 ratio, first line (6 h by the order of the upper part) [9]: 43
IC10/EC90 ratio, second line (24 h by the order of the upper part) [9]: 360
Maximum NF-kB activation (rel. to PRO1186) [%], first line (6 h by the order of the upper part) [9]: 114%
Maximum NF-kB activation (rel. to PRO1186) [%], second line (24 h by the order of the upper part) [9]: 121%
rel. Area under the curve (AUCsample/AUCPRO1186), first line (6 h by the order of the upper part) [9]: 1.2 fold
rel. Area under the curve (AUCsample/AUCPRO1186), second line (24 h by the order of the upper part) [9]: 1.29 fold
rel. EC50 (EC50, PRO1186/EC50, sample), NF-kB reporter, 6 h [9]: 1.93 fold
rel. EC50 (EC50, PRO1186/EC50, sample), NF-kB reporter, 24 h [9]: 1 fold
rel. IC10/EC90 (ratio of sample/ratio of PRO1186), first line (6 h by the order of the upper part) [9]: 0.54 fold
rel. IC10/EC90 (ratio of sample/ratio of PRO1186), second line (24 h by the order of the upper part) [9]: 1.86 fold
IC50 [4]: 11.2 ng/mL
rel. IC50 (IC50 avelumab/IC50 test) [4]: 1.32 fold
IC50 [5]: 2.27 ng/mL
rel. IC50 (IC50 avelumab/IC50 test) [5]: 1 fold
kon [10]: 327000 M⁻¹ s⁻¹
B3: PRO1480 (other)
chain: DIQMTQSPASLSASVGDRVTITCQASQSIGTYLAWYQQKPGKPPKLLIYRAFILASGVPSRFSGSGSGTDFTLTISSLQPEDFATYYCQSNFYSDSTTIGPNAFGTGTKVTVLGGGGGSEVQLVESGGGLVQPGGSLRLSCAASGFSFSANYYPCWVRQAPGKGLEWIGCIYGGSSDITYDANWTKGRFTISRDNSKNTVYLQMNSLRAEDTAVYYCARSAWYSGWGGDLWGQGTLVTVSSGGGGSGGGGSGGGGSGGGGSIQMTQSPSSLSASVGDRVTITCQASQSISNRLAWYQQKPGKAPKLLIYSASTLASGVPSRFSGSGSGTDFTLTISSLQPEDFATYYCQSTYYGNDGNAFGTGTKVTVLGGGGGSEVQLVESGGGLVQPGGSLRLSCAASGFSFNSDYWIYWVRQAPGKGLEWIASIYGGSSGNTQYASWAQGRFTISRDNSKNTVYLQMNSLRAEDTAVYFCARGYVDYGGATDLWGQGTLVTVSSGGGGSGGGGSIQMTQSPSSLSASVGDRVTITCQSSESVYSNNQLSWYQQKPGQPPKLLIYDASDLASGVPSRFSGSGSGTDFTLTISSLQPEDFATYYCAGGFSSSSDTAFGGGTKLTVLGGGGGSGGGGSGGGGSGGGGSEVQLVESGGGLVQPGGSLRLSCAASGFSLSSNAMGWVRQAPGKGLEYIGIISVGGFTYYASWAKGRFTISRDNSKNTVYLQMNSLRAEDTATYFCARDRHGGDSSGAFYLWGQGTLVTVSS
notes: trispecific scDb-scFv; also called 38-27-A11 sc02 scDb-i/37-20-B03 sc09.1 scDb-o/19-01-H04 sc03 scFv
